Target: T1, major tail protein gpV of bacteriophage lambda, in free tails (bacteriophage lambda), P03733
T1 chain: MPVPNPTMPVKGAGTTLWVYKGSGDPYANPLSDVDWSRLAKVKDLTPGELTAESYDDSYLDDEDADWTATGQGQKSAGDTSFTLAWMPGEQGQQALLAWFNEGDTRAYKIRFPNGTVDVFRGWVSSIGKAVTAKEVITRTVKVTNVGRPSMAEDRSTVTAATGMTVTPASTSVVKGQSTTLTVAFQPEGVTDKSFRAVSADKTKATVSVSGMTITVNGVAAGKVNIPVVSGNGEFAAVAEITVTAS
Assay: cryo-EM structure
Conditions: remark: other sources report otherwise

B1: major tail protein gpV of bacteriophage lambda, in free tails, P03733 1-246 (natural protein)
chain: T1 chain
stoichiometry N: 6
